{"source": "paper PMC4277767", "about": "(ACS Synthetic Biology, 2014)", "binders": {"B1": {"name": "VP16-CIB1 (CIB1 fused to a VP16 activation domain) (natural protein, Arabidopsis, UniProt Q8GY61 1-335, looked up)", "chain": "MNGAIGGDLLLNFPDMSVLERQRAHLKYLNPTFDSPLAGFFADSSMITGGEMDSYLSTAGLNLPMMYGETTVEGDSRLSISPETTLGTGNFKKRKFDTETKDCNEKKKKMTMNRDDLVEEGEEEKSKITEQNNGSTKSIKKMKHKAKKEENNFSNDSSKVTKELEKTDYIHVRARRGQATDSHSIAERVRREKISERMKFLQDLVPGCDKITGKAGMLDEIINYVQSLQRQIEFLSMKLAIVNPRPDFDMDDIFAKEVASTPMTVVPSPEMVLSGYSHEMVHSGYSSEMVNSGYLHVNPMQQVNTSSDPLSCFNNGEAPSMWDSHVQNLYGNLGV"}}, "biological_target": "LexA-CRY2 (CRY2 fused to the LexA DNA binding domain) (Arabidopsis, UniProt Q96524 1-612)", "sequence (Q96524 whole entry, the tested form may be a part)": "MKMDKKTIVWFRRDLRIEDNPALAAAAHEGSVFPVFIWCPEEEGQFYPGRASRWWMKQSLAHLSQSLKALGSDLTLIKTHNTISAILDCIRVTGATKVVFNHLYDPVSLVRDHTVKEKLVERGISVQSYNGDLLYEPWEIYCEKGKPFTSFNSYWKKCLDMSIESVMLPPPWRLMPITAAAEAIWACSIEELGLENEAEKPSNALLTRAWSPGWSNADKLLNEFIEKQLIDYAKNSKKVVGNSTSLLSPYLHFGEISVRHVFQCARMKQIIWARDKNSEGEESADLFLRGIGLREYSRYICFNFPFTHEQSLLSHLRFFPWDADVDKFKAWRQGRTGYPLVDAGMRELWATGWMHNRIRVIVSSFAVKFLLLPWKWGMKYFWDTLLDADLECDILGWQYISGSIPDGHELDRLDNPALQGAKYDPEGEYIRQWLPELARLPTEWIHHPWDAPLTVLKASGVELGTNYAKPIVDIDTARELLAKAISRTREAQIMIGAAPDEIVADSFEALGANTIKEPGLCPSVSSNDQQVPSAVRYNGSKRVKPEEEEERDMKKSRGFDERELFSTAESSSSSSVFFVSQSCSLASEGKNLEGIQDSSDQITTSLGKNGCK", "assay": "two-hybrid", "data": [{"binder": "B1", "values": [{"measurement": "fold stimulation of reporter activity by blue light over dark", "result": "~100", "unit": "fold"}]}]}
